This passage reports Kd and EC50 results from article PMC10700433 (Cancer Immunology, Immunotherapy : CII, 2023).

Test [1] deals with T1, ATOR-1017 (evunzekibart) (human).
T1 construct: as the VH of Wm14, which is in PDB 8OZ3 (amino acids 2-118 modelled); human IgG4 heavy chain constant region, S228P stabilised; as the VL of Wm14, which is in PDB 8OZ3 (amino acids 2-110 modelled); light chain constant region; IgG4 (S228P)
Kind of test: BLI; Octet RED96; antibodies captured on FABG2 biosensor tips, recombinant Fcγ receptors in solution at suitable concentration ranges; association and dissociation at physiological pH. Particulars: both partners purified. A general note: In BLI a coated tip is dipped into the sample, and binding shifts an interference pattern.

Test [2] concerns the target T2, cynomolgus 4-1BB expressed on CHO-K1 cells (Macaca fascicularis, UniProt A9YYE7).
T2 construct: cynomolgus 4-1BB (TNFRSF9) from a gene in pcDNA3.1 (GenScript); also called CHO-cy4-1BB; cy4-1BB-CHO; source: CHO-K1, stably transfected (pcDNA3.1), on cells
Kind of test: flow cytometry on cells; CHO-K1 cells stably expressing human or cynomolgus 4-1BB incubated with serially diluted ATOR-1017; detected with goat anti-hIg Fc-PE; MFI. To be noted: one partner purified. Background: Flow cytometry measures light scatter and fluorescence of single cells or particles in a stream.

Test [3] has as its target T3, human 4-1BB expressed on CHO-K1 cells (human, UniProt Q07011).
T3 construct: human 4-1BB (CD137, TNFRSF9) from a gene in pcDNA3.1 (GenScript); also called CHO-hu4-1BB; hu4-1BB-CHO; source: CHO-K1, stably transfected (pcDNA3.1), on cells
Described as above. To be noted: one partner purified.

For a further test, the target named is T4, human CD137-His (Homo sapiens, UniProt Q07011).
T4 construct: human 4-1BB (CD137, TNFRSF9), recombinant His-tagged protein from Acro; also called human 4-1BB; TNFRSF9; source: bought: Acro
Kind of test: BLI; Octet Red96 (ForteBio); who was immobilised not stated. Particulars: both partners purified.

For test [4], the target named is T5, cynomolgus 4-1BB/TNFRSF9-His (Macaca fascicularis, UniProt A9YYE7).
T5 construct: cynomolgus 4-1BB (TNFRSF9), recombinant His-tagged protein from Acro; source: bought: Acro
The description is as above. To be noted: both partners purified.

The target in test [5] is T1, ATOR-1017 (evunzekibart). Briefly: BLI; Octet RED96; antibodies captured on FABG2 biosensor tips, recombinant FcRn in solution; association studied at physiological pH, dissociation at pH6. To be noted: both partners purified.

T4 sequence (Q07011 24-186): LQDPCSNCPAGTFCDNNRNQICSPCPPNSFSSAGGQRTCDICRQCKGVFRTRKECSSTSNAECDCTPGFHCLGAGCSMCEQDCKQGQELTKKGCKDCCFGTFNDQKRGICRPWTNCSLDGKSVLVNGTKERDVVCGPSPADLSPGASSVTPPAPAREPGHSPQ
T3 sequence (Q07011 24-255): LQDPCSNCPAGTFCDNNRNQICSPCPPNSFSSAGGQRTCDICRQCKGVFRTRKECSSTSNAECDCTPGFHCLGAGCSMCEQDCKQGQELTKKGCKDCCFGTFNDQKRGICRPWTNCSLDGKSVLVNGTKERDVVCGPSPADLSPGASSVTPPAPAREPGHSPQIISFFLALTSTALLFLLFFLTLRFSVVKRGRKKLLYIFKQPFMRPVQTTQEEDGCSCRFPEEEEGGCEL

B1: mouse FcγRIIb (receptor)
chain: THDLPKAVVKLEPPWIQVLKEDTVTLTCEGTHNPGNSSTQWFHNGRSIRSQVQASYTFKATVNDSGEYRCQMEQTRLSDPVDLGVISDWLLLQTPQLVFLEGETITLRCHSWRNKLLNRISFFHNEKSVRYHHYSSNFSIPKANHSHSGDYYCKGSLGRTLHQSKPVTITVQGPKSSRSLP
modifications: soluble ectodomain assumed for BLI
For the molecule B1, the Kd (usually the free concentration of one partner at which half of the binding sites on the other are occupied at equilibrium, for simple one-to-one binding) with ATOR-1017 (evunzekibart) [1] came to 300 nM.

B2: mouse FcγRIV (receptor)
chain: GLQKAVVNLDPKWVRVLEEDSVTLRCQGTFSPEDNSIKWFHNESLIPHQDANYVIQSARVKDSGMYRCQTALSTISDPVQLEVHMGWLLLQTTKWLFQEGDPIHLRCHSWQNRPVRKVTYLQNGKGKKYFHENSELLIPKATHNDSGSYFCRGLIGHNNKSSASFRISLGDPGSPSMFPPWHQ
modifications: soluble ectodomain assumed for BLI
Consider B2, for which the Kd with ATOR-1017 (evunzekibart) [1] is 400 nM.

B3: ATOR-1017 (evunzekibart) (antibody, V domains shown)
VH: EVQLLESGGGLVQPGGSLRLSCAASGFNFGYSYMSWVRQAPGKGLEWVSSIGSTSSHTYYADSVKGRFTISRDNSKNTLYLQMNSLRAEDTAVYYCARVYSSPGIDYWGQGTLVTVSS
VL: DIQMTQSPSSLSASVGDRVTITCRASQSIGSTLNWYQQKPGKAPKLLIYGASSLQSGVPSRFSGSGSGTDFTLTISSLQPEDFATYYCQQYYTWVPFTFGQGTKLEIK
notes: the variable domains stand in the scFv of PDB 8OZ3 (heavy chain amino acids 2-118 modelled); human IgG4 constant part, S228P stabilized; the variable domains stand in the scFv of PDB 8OZ3 (light chain amino acids 2-110 modelled); light chain constant domain; IgG4 (S228P); variable domains from the human scFv library ALLIGATOR-GOLD, optimized
For B3, the EC50 in test [2] and in test [3] was 0.5 nM throughout. Further, the Kd in the test with human CD137-His was found to be 0.1 nM; in test [4] it was 0.2 nM.

B4: mouse FcRn (receptor)
chain 1: SETRPPLMYHLTAVSNPSTGLPSFWATGWLGPQQYLTYNSLRQEADPCGAWMWENQVSWYWEKETTDLKSKEQLFLEALKTLEKILNGTYTLQGLLGCELASDNSSVPTAVFALNGEEFMKFNPRIGNWTGEWPETEIVANLWMKQPDAARKESEFLLNSCPERLLGHLERGRRNLEWKEPPSMRLKARPGNSGSSVLTCAAFSFYPPELKFRFLRNGLASGSGNCSTGPNGDGSFHAWSLLEVKRGDEHHYQCQVEHEGLAQPLTVDLDSSARSS
chain 2: IQKTPQIQVYSRHPPENGKPNILNCYVTQFHPPHIEIQMLKNGKKIPKVEMSDMSFSKDWSFYILAHTEFTPTETDTYACRVKHASMAEPKTVYWDRDM
modifications: soluble Fcgrt/B2m heterodimer assumed by convention; B2m not given
Take B4: the equilibrium dissociation constant (Kd) with ATOR-1017 (evunzekibart) [5] came to 200 nM.

B5: mouse FcγRIII (receptor)
chain: ALPKAVVKLDPPWIQVLKEDMVTLMCEGTHNPGNSSTQWFHNGRSIRSQVQASYTFKATVNDSGEYRCQMEQTRLSDPVDLGVISDWLLLQTPQRVFLEGETITLRCHSWRNKLLNRISFFHNEKSVRYHHYKSNFSIPKANHSHSGDYYCKGSLGSTQHQSKPVTITVQDPATTSSISLVWYHT
modifications: soluble ectodomain assumed for BLI
As for B5, in the test with ATOR-1017 (evunzekibart) [1], the Kd was found to be 100 nM.
